# In publication PMC4304707, “Regulation of Oncogene Expression in T-DNA-Transformed Host Plant Cells”:
# T1: 6xHis-WRKY40 (Arabidopsis thaliana, UniProt Q9SAH7 1-302)
# T1 sequence: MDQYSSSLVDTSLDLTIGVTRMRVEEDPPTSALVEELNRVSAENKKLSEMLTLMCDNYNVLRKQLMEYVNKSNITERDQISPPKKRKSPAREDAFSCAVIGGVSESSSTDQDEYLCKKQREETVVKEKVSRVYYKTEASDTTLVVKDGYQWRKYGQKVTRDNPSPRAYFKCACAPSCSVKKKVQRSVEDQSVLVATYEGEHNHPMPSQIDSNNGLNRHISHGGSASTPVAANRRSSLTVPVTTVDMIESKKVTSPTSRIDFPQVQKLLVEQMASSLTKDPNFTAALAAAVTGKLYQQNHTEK
# Biological target: T1, 6xHis-WRKY40
# Assay: EMSA; 150 ng weak band, 300 ng much stronger band; about 5 ng probe; unlabeled probe competitor significantly reduced binding
# Conditions: protein: recombinant; tags: N-terminal 6xHis (pET28b, NdeI/XhoI); label: 32P 5' end (T4 PNK); blunt (implied by two complementary oligonucleotides)
binder,measurement,value
Ipt promoter probe (-184 to -135) (dsDNA) DNA 1: GATTTAGTCAGCCTTATTTGACTTAAGGGTGCCCTCGTTAGTGACAAATT DNA 2: AATTTGTCACTAACGAGGGCACCCTTAAGTCAAATAAGGCTGACTAAATC,binding result,binds
